Starred links: 1 amine or outer side, 2 acyl side, 3 side chain; linkers in the order of their positions; H or OH if unused. Non-standard residues stand in square brackets, D forms with d. Primed or numbered codes have the meaning given here. No end group written: not given here. *: point of attachment. GlyA = glycolic acid (-OCH2CO2H), esterified to the C-terminal carboxyl, O=C(O)CO*; GlyA″ = glycolic acid, ester to the C-terminal carboxyl, -OCH2CO2H, O=C(O)CO*; LacA″ = lactic acid residue, ester -OCH(CH3)CO2H at the C-terminus; Cys(S-allyl) = S-allylcysteine, C=CCSC[C@H](N[*:1])C(=O)[*:2]; Cys(S-Me) = S-methylcysteine, CSC[C@H](N[*:1])C(=O)[*:2]; γGlu = O=C(O)[C@H](CCC(=O)[*:2])N[*:1]; Tle = CC(C)(C)[C@H](N)C(=O)O; Orn = NCCC[C@H](N)C(=O)O; Abu = CC[C@H](N)C(=O)O; LacA = lactic acid

This is an account of results in patent US20100105864A1, “PROPHYLACTIC OR THERAPEUTIC AGENT FOR DIARRHEA” (priority 2007, published 2010).

The target of experiment [1] is T1, human calcium receptor (Homo sapiens, UniProt P41180).
T1 construct: expressed in transfected cells; host or cells: Xenopus laevis oocytes injected with cRNA
T1 sequence (P41180 20-1078): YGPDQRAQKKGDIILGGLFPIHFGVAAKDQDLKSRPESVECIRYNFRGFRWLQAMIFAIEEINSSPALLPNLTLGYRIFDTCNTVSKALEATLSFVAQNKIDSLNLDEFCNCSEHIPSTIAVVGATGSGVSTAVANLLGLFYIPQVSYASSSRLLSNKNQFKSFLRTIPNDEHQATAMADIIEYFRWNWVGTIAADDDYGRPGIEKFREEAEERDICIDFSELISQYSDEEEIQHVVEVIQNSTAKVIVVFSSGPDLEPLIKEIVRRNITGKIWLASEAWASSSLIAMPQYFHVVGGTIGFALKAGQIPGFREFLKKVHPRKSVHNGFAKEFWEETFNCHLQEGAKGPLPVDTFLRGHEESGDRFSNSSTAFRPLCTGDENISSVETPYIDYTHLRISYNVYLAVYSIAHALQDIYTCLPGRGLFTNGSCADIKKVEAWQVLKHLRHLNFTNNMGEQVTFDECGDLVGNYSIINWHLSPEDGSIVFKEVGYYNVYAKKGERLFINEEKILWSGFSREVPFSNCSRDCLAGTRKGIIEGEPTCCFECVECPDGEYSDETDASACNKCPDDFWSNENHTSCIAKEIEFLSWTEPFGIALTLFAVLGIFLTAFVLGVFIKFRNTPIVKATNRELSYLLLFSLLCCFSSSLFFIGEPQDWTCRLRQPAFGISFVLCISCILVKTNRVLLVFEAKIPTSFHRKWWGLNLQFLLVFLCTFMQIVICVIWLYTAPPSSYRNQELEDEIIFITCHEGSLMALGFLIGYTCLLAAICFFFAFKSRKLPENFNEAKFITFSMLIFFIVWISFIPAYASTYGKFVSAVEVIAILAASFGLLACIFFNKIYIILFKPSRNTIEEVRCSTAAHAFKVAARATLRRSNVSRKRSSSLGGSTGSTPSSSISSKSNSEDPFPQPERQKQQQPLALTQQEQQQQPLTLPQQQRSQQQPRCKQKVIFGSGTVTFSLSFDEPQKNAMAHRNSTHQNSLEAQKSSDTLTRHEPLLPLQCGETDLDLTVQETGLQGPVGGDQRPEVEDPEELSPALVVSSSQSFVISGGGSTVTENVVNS
Put plainly: Ca ion concentration-dependent Cl ionic current measurement in Xenopus laevis oocytes expressing the calcium receptor. In kind it is cell-based. Particulars: for Activity (lowest concentration at which current was detected): peptide added at 1,000, 300, 100, 30, 10, 3, 1, 0.3 and 0.1 μM. As to the method:
For evaluation of the calcium receptor-activating action, a Ca ion concentration-dependent Cl ionic current measuring method using a Xenopus laevis oocyte expression system was used. If each activator is added to Xenopus laevis oocytes expressing the calcium receptor, intracellular Ca ions increase. Then, the Ca ion concentration-dependent Cl channel opens, and the intracellular current value changes as an ionic current. By measuring the change in the intracellular current value, whether the calcium receptor-activating action is present or not can be determined.
Specifically, the abdomen of Xenopus laevis was opened, and an egg batch was taken out and then treated with a 1% collagenase solution at 20° C. for 2 hours to obtain individual oocytes. Into the oocytes, 50 nl of 1 μg/μl receptor cRNA or 50 nl of sterilized water per oocyte were injected by using a micro glass capillary, and the oocytes were cultured at 18° C. for 2 to 3 days. For the culture, a solution obtained by adding 2 mM pyruvic acid, 10 U/ml penicillin, and 10 μg/ml streptomycin to the solution in Example 2 was used. After the culture, a test solution was added to the oocytes injected with cRNA or sterilized water. Electrophysiological measurement was performed by using an amplifier Geneclamp 500 (manufactured by Axon) and recording software AxoScope 9.0 (manufactured by Axon). The oocytes were membrane potential-clamped at −70 mV by the double electrode potential clamp method, and the intracellular current was measured via the Ca ion concentration-dependent Cl ion channel. The maximum value of the intracellular current was defined as the response current value. […]
The calcium receptor-activating action of L-amino acids was evaluated by using the method described in Example 13. That is, oocytes injected with cRNA of the calcium receptor or sterilized water were prepared, and membrane potential-clamped at −70 mV by the double electrode potential clamp method. To the potential-clamped oocytes, alanine (10 mM), arginine (10 mM), asparagine (10 mM), aspartic acid (10 mM), cysteine (10 mM), glutamine (10 mM), glutamic acid (10 mM), glycine (10 mM), histidine (10 mM), isoleucine (10 mM), leucine (10 mM), lysine (10 mM), methionine (10 mM), phenylalanine (10 mM), proline (10 mM), serine (10 mM), threonine (10 mM), tryptophan (10 mM), tyrosine (10 mM), valine (10 mM), ornithine (10 mM), taurine (10 mM), or hydroxyproline (10 mM) was added, and Ca ion concentration-dependent Cl response current was measured. […] As for the above-described amino acids, the activating action is reported in Proc. Natl. Acad. Sci. USA, Apr. 25, 2000, 97(9): 4814-9.
The calcium receptor-activating action of D-cysteine was evaluated by using the method described in Example 13. That is, oocytes injected with cRNA of the calcium receptor or sterilized water were prepared, and membrane potential-clamped at −70 mV by the double electrode potential clamp method. To the potential-clamped oocytes, D-cysteine (10 mM), L-cysteine (10 mM), D-tryptophan (10 mM), or L-tryptophan (10 mM) was added, and Ca ion concentration-dependent Cl response current was measured.
The calcium receptor-activating action of a peptide was evaluated by using the method described in Example 13. That is, oocytes injected with cRNA of the calcium receptor or sterilized water were prepared, and membrane potential-clamped at −70 mV by the double electrode potential clamp method.

Experiment [2] has as its target T2, human calcium receptor (human, UniProt P41180 20-1078).
T2 sequence (looked up): T1 sequence (P41180 20-1078)
Put plainly: cell-based or functional assay.

The mark [3] stands for this setting: L-amino acid added at 10 mM, oocytes clamped at -70 mV.

As for `N[C@@H](Cc1ccc(O)cc1)C(=O)O` [tyrosine, reference compound], the “calcium receptor-activating action (Ca ion concentration-dependent Cl response current)” value (“calcium receptor-activating action” for short) in experiment [1] (setting [3]) was “definite calcium receptor-activating action”.
Turning to γ-Glu-Val-Val ([γGlu]-Val-Val), the “Activity (lowest concentration at which current was detected)” value (shortened to “Activity”) in experiment [1] is given as 1,000 μM.
The same measure, in the same setting: the value for γ-Glu-Val-Cys ([γGlu]-Val-Cys) was 10 µM.
On to `N[C@@H](CCC(=O)N[C@@H](CSN=O)C(=O)NCC(=O)O)C(=O)O` [γ-Glu-Cys(SNO)-Gly], for which the “calcium receptor-activating action” value in experiment [1] (peptide added at 50 μM) was “definite calcium receptor-activating action”.
Regarding `N[C@@H](CS)C(=O)O` [cysteine, reference compound], the “calcium receptor-activating action” value in experiment [1] (setting [3]) is on record as “definite calcium receptor-activating action”.
For “γ-Glu-Cys(S-allyl)-Gly ([γGlu]-[Cys(S-allyl)]-Gly)”, the “Activity” value in experiment [1] came to 100 µM.
Consider γ-Glu-Val-Asn ([γGlu]-Val-Asn), for which the “Activity” value in experiment [1] worked out at 30 µM.
For the molecule “γ-Glu-Cys(S-Me)-Gly ([γGlu]-[Cys(S-Me)]-Gly)”, the “Activity” value in experiment [1] is 3 µM.
As to γ-Glu-Val-Pro ([γGlu]-Val-Pro), in experiment [1], the “Activity” value worked out at 30 µM.
Still for that read-out and setting: in the case of γ-Glu-Val-Arg ([γGlu]-Val-Arg) it was 1,000 μM; in that of γ-Glu-Val-Glu ([γGlu]-Val-Glu), 1,000 μM; in that of γ-Glu-Val-Met ([γGlu]-Val-Met), 1,000 μM.
Take `N[C@@H](Cc1ccccc1)C(=O)O` [phenylalanine, reference compound]: in experiment [1] (setting [3]), the “calcium receptor-activating action” value was “definite calcium receptor-activating action”.
Turning to γ-Glu-Val-Orn ([γGlu]-Val-[Orn]), the “Activity” value in experiment [1] was found to be 100 µM.
Take γ-Glu-Ser-Gly ([γGlu]-Ser-Gly): in experiment [1], the “Activity” value was found to be 30 µM.
Take γ-Glu-γ-Glu-Val ([γGlu]-[γGlu]-Val): the “Activity” value in experiment [1] is reported as 1,000 μM.
γ-Glu-Val-Thr ([γGlu]-Val-Thr): the “Activity” value in experiment [1] is 1,000 μM.
Take γ-Glu-Tau ([γGlu]-[Tau]): the “Activity” value in experiment [1] worked out at 300 µM.
Still for that read-out and setting: in the case of γ-Glu-Val-Phe ([γGlu]-Val-Phe) it was 30 µM.
Take γ-Glu-Val-Gln ([γGlu]-Val-Gln): the “Activity” value in experiment [1] worked out at 10 µM.
As for `N[C@@H](Cc1c[nH]cn1)C(=O)O` [histidine, reference compound], the “calcium receptor-activating action” value in experiment [1] (setting [3]) is on record as “definite calcium receptor-activating action”.
For γ-Glu-t-Leu ([γGlu]-[Tle]), in experiment [1], the “Activity” value was 100 µM.
As for `N[C@H](CS)C(=O)O` [D-cysteine, reference compound], in experiment [1] (D-amino acid added at 10 mM, oocytes clamped at -70 mV), the “calcium receptor-activating action” value is given as “definite calcium receptor-activating action”.
On to γ-Glu-Orn ([γGlu]-[Orn]), for which the “calcium receptor-activating action” value in experiment [1] (peptide added at 500 μM) is reported as “definite calcium receptor-activating action”.
As to γ-Glu-Gly-Gly ([γGlu]-Gly-Gly), in experiment [1], the “Activity” value worked out at 30 µM.
Turning to γ-Glu-Val-Asp, in experiment [1], the “Activity” value is 1,000 μM.
Regarding γ-Glu-Val-His ([γGlu]-Val-His), in experiment [1], the “Activity” value came out at 100 µM.
`N[C@@H](Cc1c[nH]c2ccccc12)C(=O)O` [tryptophan, reference compound]: the “calcium receptor-activating action” value in experiment [1] (setting [3]) is reported as “definite calcium receptor-activating action”.
Consider γ-Glu-Val-Ser ([γGlu]-Val-Ser), for which the “Activity” value in experiment [1] was 30 µM.
As to γ-Glu-Val-Lys ([γGlu]-Val-Lys), the “Activity” value in experiment [1] is reported as 1,000 μM.
For the molecule γ-Glu-Abu-Gly ([γGlu]-[Abu]-Gly), in experiment [1], the “Activity” value is 3 µM.
As to [γGlu]-Val-GlyA [γ-Glu-Val-GlyA], the “EC50, calcium imaging (Calcium 3 assay kit, FLEXSTATION) in HEK 293 cells expressing human CaSR” value (from here on “EC50, calcium imaging”) in experiment [2] was determined as 140 nM.
Still for that read-out and setting: in the case of [γGlu]-Val-LacA [γ-Glu-Val-LacA] it was 57 nM; in that of [γGlu]-[Abu]-{LacA″} [γ-Glu-Abu-LacA], 102 nM.
Consider [γGlu]-[Tle]-{LacA″} [γ-Glu-t-Leu-LacA], for which the “EC50, calcium imaging” value in experiment [2] was 38 nM.
With [γGlu]-[Tle]-{GlyA″} [γ-Glu-t-Leu-GlyA], the “EC50, calcium imaging” value in experiment [2] was determined as 50 nM.
